# Source: patent publication US20230348572A1
# Read-outs that look alike come from different tables or passages of the source.
# What was measured:
# [1] = biological target: RBD-6H (amino acid 340-538; NITN.GPKK), biotinylated (SARS-CoV-2) (UniProt P0DTC2)
# [2] = biological target: RBD-6H (amino acid 340-538; NITN.GPKK), biotinylated (SARS-CoV-2) (UniProt P0DTC2); remark: listed apart in the source
# [3] = biological target: RBD (amino acids 340-538 NITN.GPKK) expressed on the surface of MDCK-SIAT1 cells (SARS-CoV-2) (UniProt P0DTC2)
Substance,IC50 [1] [nM],IC50 [2] [nM],IC50 [3] [nM]
CR3022-Fc (antibody),803,–,–
H11-H4-Fc (Fc fusion),–,61,34
VHH72-Fc (Fc fusion),–,262,33
